Data set [1] is described as follows: Optimum pH and heat deactivation of MKK7. In kind it is physicochemical. Here is the method:
In addition to MKK7, MKK6 and SEK1 were used as the MAPK kinase, and MAPK, SAPK, p38 and SAPK3 were used as the MAP kinase. A MAPK kinase gene and a MAP kinase gene were cotransfected to a cell in different combinations, and the activity of the MAP kinase in vivo was determined by measuring the amount of a substrate (for the transfected MAP kinase) phosphorylated by the cotransfected cells. […] From this experiment, it has become apparent that the optimum pH for MKK7 is in the range of from pH 7 to 8, and MKK7 is deactivated at 70° C. or higher.

The target of the next data set is T1, p38 (Mus musculus, UniProt P47811).
T1 construct: His (N); made in house; host or cells: E. coli
Nature of the data set: Activation of MAP kinase by recombinant MAPK kinase in vitro, substrate phosphorylation by autoradiography. The conditions noted are these: 0.1 μg MAPK kinase, 0.5 μg His-p38, 30° C. 30 minutes; substrate ATF-2. The format is biochemical. As for the experimental part:
(§1) 0.1 μg of a MAPK kinase (His-MKK7, GST-SEK1 and His-MKK6 were separately used) and 0.5 μg of a MAP kinase (His-MAPK, His-SAPK, His-p38 and His-SAPK3 were separately used), both prepared in item (1) above, were incubated with 10 μl of a solution containing 100 μM ATP, 20 mM MgCl2, 2 mM EGTA and 20 mM Tris-HCl (pH 7.5) at 30° C. for 30 minutes, to thereby activate the MAP kinase. Subsequently, 5 μl of a solution containing a substrate for the MAP kinase and 1 μCi of [γ-^32P] ATP (manufactured and sold by Amersham International, England) was added to the mixture, and further incubated at 20° C. for 20 minutes. As a substrate for the MAP kinase, 3 μg of myelin basic protein (MBP) was used for MAPK and SAPK3, 3 μg of GST-cJun (1-79) was used for SAPK, and 3 μg of ATF-2 was used for p38. The MBP used as the substrate was obtained by purifying Brain Acetone Powder (manufactured and sold by Sigma, USA), and ATF-2 was a kind gift of Dr. Suzanne J. Baker and Dr. Tom Curran (St. Jude Children's Research Hospital). After incubation, a sample was obtained from each incubated mixture and resolved on SDS-polyacrylamide gel electrophoresis. Then, the radioactivity of each of MBP, c-Jun and ATF-2 was detected by autoradiography.

For another data set, the target named is T2, SAPK (Mus musculus, UniProt Q9WTU6).
T2 construct: His (N); made in house; host or cells: E. coli
The description is as above. The format is biochemical. The conditions noted are these: 0.1 μg MAPK kinase, 0.5 μg His-SAPK, 30° C. 30 minutes; substrate GST-cJun (1-79). Here is the method:
as §1

The target in another data set is T3, SAPK3 (Mus musculus, UniProt O08911).
T3 construct: His (N); made in house; host or cells: E. coli
T3 sequence (O08911 1-367): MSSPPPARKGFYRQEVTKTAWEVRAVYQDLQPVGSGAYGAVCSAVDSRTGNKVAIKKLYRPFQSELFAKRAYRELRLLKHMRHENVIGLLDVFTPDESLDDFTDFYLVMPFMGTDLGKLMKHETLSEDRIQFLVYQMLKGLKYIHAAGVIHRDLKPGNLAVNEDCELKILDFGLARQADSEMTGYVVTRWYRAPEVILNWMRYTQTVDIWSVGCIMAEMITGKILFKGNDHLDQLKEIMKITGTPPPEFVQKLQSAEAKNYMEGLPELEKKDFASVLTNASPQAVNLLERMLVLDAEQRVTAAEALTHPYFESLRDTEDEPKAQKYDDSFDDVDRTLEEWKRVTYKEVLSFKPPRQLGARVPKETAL
The data set is described as above. The format is biochemical. The conditions noted are these: 0.1 μg MAPK kinase, 0.5 μg His-SAPK3, 30° C. 30 minutes. As for the experimental part:
as §1

The test system of the next data set is SAPK/JNK. In words: Inhibition of TNF-α-induced SAPK activation by the dominant negative form of MKK7 in KB cells. The note with it: KB cells cotransfected with pSRα-HA-SAPKα and pSRα-MKK7KL; TNF-α 100 ng/ml, 15 minutes; sorbitol- and anisomycin-induced activation not suppressed. Here is the method:
KB cells were cotransfected with the vector pSRα-HA-SAPKα (0.5 μg) and either the vector pSRα or the vector pSRα-MKK7KL (1.5 μg) using Lipofectamine (manufactured and sold under the brand of GIBCO BRL, USA). Twenty-four hours after the transfection, TNF-α (100 ng/ml), sorbitol (0.5 M) and anisomycin (100 μg/ml) were individually used to stimulate the transfected cells for 15 minutes. Next, the cell extracts of the stimulated cells were individually prepared as follows. The cells were suspended in 0.7 M NaCl solution and washed once with ice-cold HEPES-buffered saline. Subsequently, the washed cells were homogenized in a buffer containing 20 mM Tris-HCl (pH 7.5), 2 mM EGTA, 25 mM β-glycerophosphate, 2 mM DTT, 1 mM vanadate, 1 mM PMSF and 1% aprotinin, wherein the buffer was used in an amount of 300 μl relative to cells obtained per plate (diameter: 100 mm). The resultant cell homogenate was centrifuged at 1000×g for 3 minutes, followed by a further centrifugation at 400,000×g for 20 minutes, thereby obtaining a supernatant. The obtained supernatant was used as the cell extract.
Each of the cell extracts was individually immunoprecipitated with anti-HA antibody (anti-hemagglutinin antibody) (12CA5), and the kinase activity of HA-SAPK in the immunoprecipitate was determined.

Some results are limits rather than exact numbers.

T1 sequence (P47811 whole entry): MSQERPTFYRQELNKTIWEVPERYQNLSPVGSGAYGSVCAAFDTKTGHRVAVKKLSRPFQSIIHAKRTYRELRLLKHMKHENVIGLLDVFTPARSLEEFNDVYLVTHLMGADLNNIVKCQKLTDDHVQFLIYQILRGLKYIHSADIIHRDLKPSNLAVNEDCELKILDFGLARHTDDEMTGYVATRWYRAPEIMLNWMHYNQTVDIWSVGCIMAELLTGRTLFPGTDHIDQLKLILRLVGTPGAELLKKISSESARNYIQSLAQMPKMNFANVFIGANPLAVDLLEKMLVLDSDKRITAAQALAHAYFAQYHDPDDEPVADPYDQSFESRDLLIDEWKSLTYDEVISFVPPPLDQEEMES

B1: mouse MKK7: novel MAPK kinase derived from mouse brain, amino acid sequence SEQ ID NO: 4 (protein)
chain: MAASSLEQKLSRLEAKLKQENREARRRIDLNLDISPQRPRPIIVITLSPAPAPSQRAALQLPLANDGGSRSPSSESSPQHPTPPTRPRHMLGLPSTLFTPRSMESIEIDQKLQEIMKQTGYLTIGGQRYQAEINDLENLGEMGSGTCGQVWKMRFRKTGHIIAVKQMRRSGNKEENKRILMDLDVVLKSHDCPYIVQCFGTFITNTDVFIAMELMGTCAEKLKKRMQGPIPERILGKMTVAIVKALYYLKEKHGVIHRDVKPSNILLDERGQIKLCDFGISGRLVDSKAKTRSAGCAAYMAPERIDPPDPTKPDYDIRADVWSLGISLVELATGQFPYKNCKTDFEVLTKVLQEEPPLLPGHMGFSGDFQSFVKDCLTKDHRKRPKYNKLLEHSFIKHYEILEVDVASWFKDVMAKTESPRTSGVLSQHHLPFFSGSLEESPTSPPSPKSFPLSPAIPQAQAEWVSGR
On to B1, for which, in data set [1], the “optimum pH” value is recorded as 7 to 8 pH and the “temperature at which MKK7 is deactivated” value was at least 70 °C. For the same molecule, in the data set with p38, the “activation of p38 (phosphorylation of ATF-2)” value (“activation of p38” below) is given as “did not activate”. Besides, in the data set with SAPK, the “activation of SAPK (phosphorylation of c-Jun)” value is given as “specifically activated”. Also, in the data set with SAPK3, the “activation of SAPK3 (phosphorylation of MBP)” value (shortened to “activation of SAPK3”) was “did not activate”.

B2: MKK7KL: dominant negative form of mouse MKK7, 165th Lysine (K) substituted with leucine (L), SEQ ID NO: 10 (protein)
chain: MAASSLEQKLSRLEAKLKQENREARRRIDLNLDISPQRPRPIIVITLSPAPAPSQRAALQLPLANDGGSRSPSSESSPQHPTPPTRPRHMLGLPSTLFTPRSMESIEIDQKLQEIMKQTGYLTIGGQRYQAEINDLENLGEMGSGTCGQVWKMRFRKTGHIIAVLQMRRSGNKEENKRILMDLDVVLKSHDCPYIVQCFGTFITNTDVFIAMELMGTCAEKLKKRMQGPIPERILGKMTVAIVKALYYLKEKHGVIHRDVKPSNILLDERGQIKLCDFGISGRLVDSKAKTRSAGCAAYMAPERIDPPDPTKPDYDIRADVWSLGISLVELATGQFPYKNCKTDFEVLTKVLQEEPPLLPGHMGFSGDFQSFVKDCLTKDHRKRPKYNKLLEHSFIKHYEILEVDVASWFKDVMAKTESPRTSGVLSQHHLPFFSGSLEESPTSPPSPKSFPLSPAIPQAQAEWVSGR
For the molecule B2, the “TNF-α-induced activation of SAPK/JNK in a cell expressing MKK7KL” value with SAPK/JNK was “suppressed”.

B3: MKK6: known MAPK kinase, human MKK6 expressed as His-MKK6 (protein)
chain: MSQSKGKKRNPGLKIPKEAFEQPQTSSTPPRDLDSKACISIGNQNFEVKADDLEPIMELGRGAYGVVEKMRHVPSGQIMAVKRIRATVNSQEQKRLLMDLDISMRTVDCPFTVTFYGALFREGDVWICMELMDTSLDKFYKQVIDKGQTIPEDILGKIAVSIVKALEHLHSKLSVIHRDVKPSNVLINALGQVKMCDFGISGYLVDSVAKTIDAGCKPYMAPERINPELNQKGYSVKSDIWSLGITMIELAILRFPYDSWGTPFQQLKQVVEEPSPQLPADKFSAEFVDFTSQCLKKNSKERPTYPELMQHPFFTLHESKGTDVASFVKLILGD
modifications: left off: small tags and cut ends
Turning to B3, the “activation of p38” value with p38 is “activated”. For the same molecule, in the data set with SAPK, the “activation of SAPK (phosphorylation of c-Jun)” value is reported as “did not activate”. Also, the “activation of SAPK3” value with SAPK3 is “activated”.

B4: mouse SEK1: known MAPK kinase, mouse SEK1 expressed as GST-SEK1 (protein)
chain: MAAPSPSGGGGSGGGGGTPGPIGPPASGHPAVSSMQGKRKALKLNFANPPVKSTARFTLNPNTTGVQNPHIERLRTHSIESSGKLKISPEQHWDFTAEDLKDLGEIGRGAYGSVNKMVHKPSGQIMAVKRIRSTVDEKEQKQLLMDLDVVMRSSDCPYIVQFYGALFREGDCWICMELMSTSFDKFYKYVYSVLDDVIPEEILGKITLATVKALNHLKENLKIIHRDIKPSNILLDRSGNIKLCDFGISGQLVDSIAKTRDAGCRPYMAPERIDPSASRQGYDVRSDVWSLGITLYELATGRFPYPKWNSVFDQLTQVVKGDPPQLSNSEEREFSPSFINFVNLCLTKDESKRPKYKELLKHPFILMYEERTVEVACYVCKILDQMPATPSSPMYVD
modifications: left off: a dimerising Fc or GST
In the case of B4, the “activation of p38” value with p38 was “activated”. In addition, in the data set with SAPK, the “activation of SAPK (phosphorylation of c-Jun)” value is “activated”. The “activation of SAPK3” value with SAPK3 is “activated”.
